Assay in all cases: cryo-EM structure
Data set [1] concerns the molecule itself.
Data set [2] deals with the molecule itself. The source holds these as a separate data set.
Data set [3] concerns the molecule itself. The source holds these as a separate data set.

Where two headings read alike, the source gives them in different places.

B1: murine TMEM16F with C-terminal vYFP and SBP-tag (natural protein, mouse)
chain: QMMTRKVLLNMELEEDDDEDGDIVLENFDQTIVCPTFGSLENQQDFRTPEFEEFNGKPDSLFFTDGQRRIDFILVYEDESKKENNKKGTNEKQKRKRQAYESNLICHGLQLEATRSVSDDKLVFVKVHAPWEVLCTYAEIMHIKLPLKPNDLKTRSPFGNLNWFTKVLRVNESVIKPEQEFFTAPFEKSRMNDFYILDRDSFFNPATRSRIVYFILSRVKYQVMNNVNKFGINRLVSSGIYKAAFPLHDCRFNYESEDISCPSERYLLYREWAHPRSIYKKQPLDLIRKYYGEKIGIYFAWLGYYTQMLLLAAVVGVACFLYGYLDQDNCTWSKEVCDPDIGGQILMCPQCDRLCPFWRLNITCESSKKLCIFDSFGTLIFAVFMGVWVTLFLEFWKRRQAELEYEWDTVELQQEEQARPEYEAQCNHVVINEITQEEERIPFTTCGKCIRVTLCASAVFFWILLIIASVIGIIVYRLSVFIVFSTTLPKNPNGTDPIQKYLTPQMATSITASIISFIIIMILNTIYEKVAIMITNFELPRTQTDYENSLTMKMFLFQFVNYYSSCFYIAFFKGKFVGYPGDPVYLLGKYRSEECDPGGCLLELTTQLTIIMGGKAIWNNIQEVLLPWVMNLIGRYKRVSGSEKITPRWEQDYHLQPMGKLGLFYEYLEMIIQFGFVTLFVASFPLAPLLALVNNILEIRVDAWKLTTQFRRMVPEKAQDIGAWQPIMQGIAILAVVTNAMIIAFTSDMIPRLVYYWSFSIPPYGDHTYYTMDGYINNTLSVFNITDFKNTDKENPYIGLGNYTLCRYRDFRNPPGHPQEYKHNIYYWHVIAAKLAFIIVMEHIIYSVKFFISYAIPDVSKITKSKIKREKYLTQKLLHESHLKDLTKNMGIIAERIGGTVDNSVRPKLE
The stoichiometry N is the number of molecules, sites or subunits per partner or assembly. On to B1, for which the “stoichiometry N” value in the data set “cryo-EM structure [1]” came out at 2.

B2: bovine TMEM206/PACC1 with C-terminally fused venus-YFP followed by a streptavidin binding peptide tag (natural protein)
chain: not shown
In the case of B2, in “cryo-EM structure [2]”, the binding result was “binds”.

B3: bovine proton-activated Cl- channel TMEM206/PACC1 without vYFP (conventional purification) (natural protein)
chain: not shown
Regarding B3, the binding result in the data set “cryo-EM structure [3]” is reported as “binds”.

The values are drawn from publication doi:10.1101/2025.01.10.632437 (bioRxiv, 2025).
